Results from paper PMC7369618.

Molecular target: pyruvate kinase M2 (PKM2), endogenous in mouse macrophages (mouse (endogenous in BMDMs or Raw 264.7)) (UniProt P52480)
Assay: cross-linking

Chain of pyruvate kinase M2 (PKM2), endogenous in mouse macrophages, P52480 1-531 (enzyme; other documents disagree on this pair) (P52480 whole entry): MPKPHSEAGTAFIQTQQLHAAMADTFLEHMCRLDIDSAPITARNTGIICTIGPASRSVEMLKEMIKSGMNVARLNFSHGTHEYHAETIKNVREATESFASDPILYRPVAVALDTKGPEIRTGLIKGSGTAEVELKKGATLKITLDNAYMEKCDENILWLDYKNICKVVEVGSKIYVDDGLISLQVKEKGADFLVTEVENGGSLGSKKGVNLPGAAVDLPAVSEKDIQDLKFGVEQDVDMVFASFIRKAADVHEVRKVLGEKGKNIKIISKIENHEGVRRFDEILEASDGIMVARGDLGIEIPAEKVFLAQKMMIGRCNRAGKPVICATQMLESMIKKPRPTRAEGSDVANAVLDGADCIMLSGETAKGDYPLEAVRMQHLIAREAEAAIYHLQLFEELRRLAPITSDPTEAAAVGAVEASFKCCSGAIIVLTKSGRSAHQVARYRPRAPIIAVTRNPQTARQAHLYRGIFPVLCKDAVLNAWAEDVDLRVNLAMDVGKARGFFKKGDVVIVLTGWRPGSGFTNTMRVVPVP

## pyruvate kinase M2 (PKM2), endogenous in mouse macrophages, P52480 1-531 (enzyme; other documents disagree on this pair)
  stoichiometry N: 4
